From IntAct's records for PubMed 36931259

B1: 14-3-3 protein sigma (Homo sapiens), P31947 (parent)
chain: MERASLIQKAKLAEQAERYEDMAAFMKGAVEKGEELSCEERNLLSVAYKNVVGGQRAAWRVLSSIEQKSNEEGSEEKGPEVREYREKVETELQGVCDTVLGLLDSHLIKEAGDAESRVFYLKMKGDYYRYLAEVATGDDKKRIIDSARSAYQEAMDISKKEMPPTNPIRLGLALNFSVFHYEIANSPEEAISLAKTTFDEAMADLHTLSEDSYKDSTLIMQLLRDNLTLWTADNAGEEGGEAPQEPQS
partner: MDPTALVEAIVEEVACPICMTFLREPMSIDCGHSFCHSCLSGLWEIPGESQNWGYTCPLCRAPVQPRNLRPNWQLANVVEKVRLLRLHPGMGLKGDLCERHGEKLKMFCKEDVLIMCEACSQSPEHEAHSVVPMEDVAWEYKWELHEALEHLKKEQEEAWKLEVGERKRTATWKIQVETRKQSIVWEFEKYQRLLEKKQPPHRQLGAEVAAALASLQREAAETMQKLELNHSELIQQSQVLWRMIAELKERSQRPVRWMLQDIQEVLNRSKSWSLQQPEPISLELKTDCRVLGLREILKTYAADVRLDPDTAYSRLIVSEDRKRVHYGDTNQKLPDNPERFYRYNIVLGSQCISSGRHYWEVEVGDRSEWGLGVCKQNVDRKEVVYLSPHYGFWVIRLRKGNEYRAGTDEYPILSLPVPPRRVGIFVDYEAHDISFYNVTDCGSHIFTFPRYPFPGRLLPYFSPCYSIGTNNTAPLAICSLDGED
B2: 14-3-3 protein sigma (Homo sapiens), P31947 (parent)
chain: B1 chain
partner: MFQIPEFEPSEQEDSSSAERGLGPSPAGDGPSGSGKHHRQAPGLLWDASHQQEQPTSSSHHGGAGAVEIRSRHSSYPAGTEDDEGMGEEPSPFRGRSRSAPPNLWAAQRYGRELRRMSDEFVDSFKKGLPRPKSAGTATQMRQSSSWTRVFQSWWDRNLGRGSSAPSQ
B3: Kinesin-like protein KIF1C (Homo sapiens), O43896 (parent)
chain: MAGASVKVAVRVRPFNARETSQDAKCVVSMQGNTTSIINPKQSKDAPKSFTFDYSYWSHTSTEDPQFASQQQVYRDIGEEMLLHAFEGYNVCIFAYGQTGAGKSYTMMGRQEPGQQGIVPQLCEDLFSRVSENQSAQLSYSVEVSYMEIYCERVRDLLNPKSRGSLRVREHPILGPYVQDLSKLAVTSYADIADLMDCGNKARTVAATNMNETSSRSHAVFTIVFTQRCHDQLTGLDSEKVSKISLVDLAGSERADSSGARGMRLKEGANINKSLTTLGKVISALADMQSKKRKSDFIPYRDSVLTWLLKENLGGNSRTAMIAALSPADINYEETLSTLRYADRTKQIRCNAIINEDPNARLIRELQEEVARLRELLMAQGLSASALEGLKTEEGSVRGALPAVSSPPAPVSPSSPTTHNGELEPSFSPNTESQIGPEEAMERLQETEKIIAELNETWEEKLRKTEALRMEREALLAEMGVAVREDGGTVGVFSPKKTPHLVNLNEDPLMSECLLYHIKDGVTRVGQVDMDIKLTGQFIREQHCLFRSIPQPDGEVVVTLEPCEGAETYVNGKLVTEPLVLKSGNRIVMGKNHVFRFNHPEQARLERERGVPPPPGPPSEPVDWNFAQKELLEQQGIDIKLEMEKRLQDLENQYRKEKEEADLLLEQQRLYADSDSGDDSDKRSCEESWRLISSLREQLPPTTVQTIVKRCGLPSSGKRRAPRRVYQIPQRRRLQGKDPRWATMADLKMQAVKEICYEVALADFRHGRAEIEALAALKMRELCRTYGKPDGPGDAWRAVARDVWDTVGEEEGGGAGSGGGSEEGARGAEVEDLRAHIDKLTGILQEVKLQNSSKDRELQALRDRMLRMERVIPLAQDHEDENEEGGEVPWAPPEGSEAAEEAAPSDRMPSARPPSPPLSSWERVSRLMEEDPAFRRGRLRWLKQEQLRLQGLQGSGGRGGGLRRPPARFVPPHDCKLRFPFKSNPQHRESWPGMGSGEAPTPLQPPEEVTPHPATPARRPPSPRRSHHPRRNSLDGGGRSRGAGSAQPEPQHFQPKKHNSYPQPPQPYPAQRPPGPRYPPYTTPPRMRRQRSAPDLKESGAAV
partner: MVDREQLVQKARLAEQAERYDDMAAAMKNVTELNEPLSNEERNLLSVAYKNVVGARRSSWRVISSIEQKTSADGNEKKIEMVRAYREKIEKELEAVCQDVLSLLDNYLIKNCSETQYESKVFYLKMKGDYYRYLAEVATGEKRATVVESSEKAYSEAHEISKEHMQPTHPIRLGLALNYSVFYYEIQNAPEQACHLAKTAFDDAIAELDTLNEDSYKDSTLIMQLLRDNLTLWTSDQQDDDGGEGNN
B4: 14-3-3 protein sigma (Homo sapiens), P31947 (parent)
chain: B1 chain
partner: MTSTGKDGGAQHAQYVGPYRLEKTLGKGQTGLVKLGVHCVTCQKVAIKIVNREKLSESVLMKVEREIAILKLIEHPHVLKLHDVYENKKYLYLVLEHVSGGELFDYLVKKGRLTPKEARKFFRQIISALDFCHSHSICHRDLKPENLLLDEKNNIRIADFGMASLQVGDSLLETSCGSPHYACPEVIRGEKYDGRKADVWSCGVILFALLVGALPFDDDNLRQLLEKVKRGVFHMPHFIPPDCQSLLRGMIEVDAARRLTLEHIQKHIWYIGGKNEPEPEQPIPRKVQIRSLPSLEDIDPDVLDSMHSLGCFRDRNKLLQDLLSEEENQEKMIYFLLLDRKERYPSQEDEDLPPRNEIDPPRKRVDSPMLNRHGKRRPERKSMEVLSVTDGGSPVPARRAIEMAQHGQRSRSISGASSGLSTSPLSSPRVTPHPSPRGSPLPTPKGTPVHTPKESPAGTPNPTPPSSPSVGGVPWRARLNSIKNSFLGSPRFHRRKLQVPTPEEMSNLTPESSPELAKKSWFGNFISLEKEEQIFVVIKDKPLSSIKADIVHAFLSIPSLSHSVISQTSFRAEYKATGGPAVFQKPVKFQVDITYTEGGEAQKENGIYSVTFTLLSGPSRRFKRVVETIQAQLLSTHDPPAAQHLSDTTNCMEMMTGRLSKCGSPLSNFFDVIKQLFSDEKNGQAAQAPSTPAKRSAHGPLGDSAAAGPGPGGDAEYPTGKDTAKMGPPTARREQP
B5: 14-3-3 protein sigma (Homo sapiens), P31947 (parent)
chain: B1 chain
partner: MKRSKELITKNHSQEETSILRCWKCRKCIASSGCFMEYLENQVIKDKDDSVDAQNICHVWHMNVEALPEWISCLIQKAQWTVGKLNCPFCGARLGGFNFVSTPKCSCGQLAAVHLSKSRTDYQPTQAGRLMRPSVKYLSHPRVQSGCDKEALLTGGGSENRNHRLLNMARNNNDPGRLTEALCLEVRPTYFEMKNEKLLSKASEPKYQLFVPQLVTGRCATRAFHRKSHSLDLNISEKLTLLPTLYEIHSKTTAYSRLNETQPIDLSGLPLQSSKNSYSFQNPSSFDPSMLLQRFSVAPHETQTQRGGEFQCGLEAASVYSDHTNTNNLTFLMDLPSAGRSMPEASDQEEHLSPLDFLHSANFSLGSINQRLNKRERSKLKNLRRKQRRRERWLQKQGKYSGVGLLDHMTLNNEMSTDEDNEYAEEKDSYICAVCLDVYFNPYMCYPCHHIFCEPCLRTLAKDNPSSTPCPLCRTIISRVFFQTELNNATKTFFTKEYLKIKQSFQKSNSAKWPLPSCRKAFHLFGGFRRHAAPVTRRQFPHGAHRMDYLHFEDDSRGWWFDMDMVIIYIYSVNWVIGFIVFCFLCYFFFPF
B6: Protein Smaug homolog 1 (Homo sapiens), Q9UPU9 (parent)
chain: MMFRDQVGVLAGWFKGWNECEQTVALLSLLKRVSQTQARFLQLCLEHSLADCAELHVLEREANSPGIINQWQQESKDKVISLLLTHLPLLKPGNLDAKVEYMKLLPKILAHSIEHNQHIEESRQLLSYALIHPATSLEDRSALAMWLNHLEDRTSTSFGGQNRGRSDSVDYGQTHYYHQRQNSDDKLNGWQNSRDSGICINASNWQDKSMGCENGHVPLYSSSSVPTTINTIGTSTSTILSGQAHHSPLKRSVSLTPPMNVPNQPLGHGWMSHEDLRARGPQCLPSDHAPLSPQSSVASSGSGGSEHLEDQTTARNTFQEEGSGMKDVPAWLKSLRLHKYAALFSQMTYEEMMALTECQLEAQNVTKGARHKIVISIQKLKERQNLLKSLERDIIEGGSLRIPLQELHQMILTPIKAYSSPSTTPEARRREPQAPRQPSLMGPESQSPDCKDGAAATGATATPSAGASGGLQPHQLSSCDGELAVAPLPEGDLPGQFTRVMGKVCTQLLVSRPDEENISSYLQLIDKCLIHEAFTETQKKRLLSWKQQVQKLFRSFPRKTLLDISGYRQQRNRGFGQSNSLPTAGSVGGGMGRRNPRQYQIPSRNVPSARLGLLGTSGFVSSNQRNTTATPTIMKQGRQNLWFANPGGSNSMPSRTHSSVQRTRSLPVHTSPQNMLMFQQPEFQLPVTEPDINNRLESLCLSMTEHALGDGVDRTSTI
partner: B3 partner

Variants of: B1
Details: with tri68_human TRIM68, Q6AZZ1

effect of a mutation on the interaction	Variant
decreasing interaction strength	K49E;R56E;V178D

Variants of: B2
Details: with bad_human BAD

effect of a mutation on the interaction	Variant
decreasing interaction strength	K49E;R56E;V178D

Variants of: B3
Details: with 1433g_human YWHAG

effect of a mutation on the interaction	Variant
disrupting interaction strength	S915A;S1033A;S1092A

Variants of: B4
Details: with brsk2_human BRSK2, Q8IWQ3

effect of a mutation on the interaction	Variant
decreasing interaction strength	K49E;R56E;V178D

Variants of: B5
Details: with rn180_human RNF180, Q86T96

effect of a mutation on the interaction	Variant
decreasing interaction strength	K49E;R56E;V178D

Variants of: B6
Details: with 1433g_human YWHAG

effect of a mutation on the interaction	Variant
decreasing interaction strength	S168A;S183A;S254A;S580A;S665A;T717A
